Measurements reported in patent US20240052034A1 (PANDION OPERATIONS, published 2024).
Where “and” joins values, the source holds several entries; their conditions need not be identical. Identical values can stand only once.

T1: Fc-tagged mouse PD-1 (mouse, UniProt Q02242 25-167, limits assumed)
T1 construct: Printed 'Fe-tagged', read as Fc-tagged; also called Fe-tagged mouse PD-1 (so in the source); not shown: Fc tag
T1 sequence (looked up): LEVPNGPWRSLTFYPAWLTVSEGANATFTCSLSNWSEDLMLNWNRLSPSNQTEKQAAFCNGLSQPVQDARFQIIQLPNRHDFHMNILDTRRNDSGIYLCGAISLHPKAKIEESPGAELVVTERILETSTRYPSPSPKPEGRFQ

T2: mouse PD-1 (mouse, UniProt Q02242 25-167, limits assumed)
T2 sequence (looked up): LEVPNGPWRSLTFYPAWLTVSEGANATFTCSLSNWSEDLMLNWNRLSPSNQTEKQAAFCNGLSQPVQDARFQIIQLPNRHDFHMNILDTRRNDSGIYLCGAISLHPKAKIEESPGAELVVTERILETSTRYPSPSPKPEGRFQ


Tests used:
[1] = molecular target: T3, Fc-tagged cynomolgus PD-1 (cynomolgus, UniProt B0LAJ3 25-170); experiment: BLI (biosensor): Fc-tagged PD-1 on anti-human IgG Fc tips, fragment in solution
T3 construct: Printed 'Fe-tagged', read as Fc-tagged; also called cyno PD-1; Fe-tagged cynomolgus PD-1 (so in the source)
T3 sequence (B0LAJ3 entry or part of it limits assumed): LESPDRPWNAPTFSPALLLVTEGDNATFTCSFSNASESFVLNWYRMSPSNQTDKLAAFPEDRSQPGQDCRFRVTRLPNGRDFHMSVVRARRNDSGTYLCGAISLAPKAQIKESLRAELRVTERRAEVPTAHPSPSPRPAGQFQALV
Protocol: (§1) Anti-human IgG Fc (AHC) or Streptavidin (SA) biosensor were equilibrated in assay buffer for 20 minutes. Fe-tagged mouse and cynomolgus PD-1 was diluted to 5 μg/mL and biotinylated huPD-1 article was diluted to 0.5 μg/mL in assay buffer (1×PBS, 1% BSA, 0.05% Tween20). […] PD-1 was loaded on tips for 180 s followed by a 180 s association phase with PD-1 and 180 s dissociation phase in assay buffer.

[2] = molecular target: T1, Fc-tagged mouse PD-1; experiment: as above
Protocol: as §1

[3] = molecular target: T4, biotinylated huPD-1 (human, UniProt Q15116 25-167, limits assumed, biotinylated (site not stated)); experiment: BLI (biosensor): biotinylated huPD-1 on streptavidin tips, fragment in solution
T4 construct: also called human PD-1
T4 sequence (Q15116 25-167 limits assumed): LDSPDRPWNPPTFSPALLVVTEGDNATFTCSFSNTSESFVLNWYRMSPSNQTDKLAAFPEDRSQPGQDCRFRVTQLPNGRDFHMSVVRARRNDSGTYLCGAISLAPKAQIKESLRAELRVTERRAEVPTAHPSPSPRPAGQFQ
Protocol: as §1

[4] = molecular target: T5, cynomolgus PD-1 (cynomolgus, UniProt B0LAJ3 25-170); experiment: BLI (biosensor): test article on anti-human IgG Fc tips, PD-1 in solution
T5 construct: also called cyno PD-1
T5 sequence (B0LAJ3 entry or part of it limits assumed): as the sequence (B0LAJ3 entry or part of it limits assumed) above
Protocol: (§2) Anti-human IgG Fc (AHC) biosensors were equilibrated in assay buffer for 20 minutes. Test articles were diluted to 10 μg/mL in assay buffer (lx PBS, 1% BSA, 0.05% Tween20). A seven-point serial dilution of human PD-1 was prepared in assay buffer, starting at 1000 nM down to 15.625 nM (human PD-1) or 2000 nM down to 31.25 nM (mouse PD-1). Test articles were loaded on tips for 180 s followed by a 180 s association phase with PD-1 and 180 s dissociation phase in assay buffer.
as §2, with “article was” for “articles were”, “(human and cyno” for “(human”

[5] = molecular target: T6, human PD-1 (human, UniProt Q15116 25-167, limits assumed); experiment: as above
T6 construct: also called huPD-1
T6 sequence (Q15116 25-167 limits assumed): as the sequence (Q15116 25-167 limits assumed) above
Protocol: as §2
as §2, with “article was” for “articles were”, “(human and cyno” for “(human”

[6] = molecular target: T2, mouse PD-1; experiment: as above
Protocol: as §2
as §2, with “article was” for “articles were”, “(human and cyno” for “(human”

[7] = molecular target: PD-1 on PD-1 reporter Jurkat cells (UniProt Q15116 25-288, limits assumed); experiment: cell-based or functional assay
Sequence of PD-1 on PD-1 reporter Jurkat cells (Q15116 25-288 limits assumed): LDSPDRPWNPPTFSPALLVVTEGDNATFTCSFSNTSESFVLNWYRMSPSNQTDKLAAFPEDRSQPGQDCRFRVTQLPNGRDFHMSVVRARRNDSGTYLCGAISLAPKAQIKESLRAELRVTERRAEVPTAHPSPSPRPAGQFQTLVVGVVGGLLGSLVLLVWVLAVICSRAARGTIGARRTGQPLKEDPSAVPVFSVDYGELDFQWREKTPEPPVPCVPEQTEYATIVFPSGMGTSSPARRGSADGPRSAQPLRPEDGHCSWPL

Binder	Kd [1] [nM]	Kd [2] [nM]	Kd [3] [nM]	koff [6]	kon [6]	EC50 of SHP-2 recruitment, PD-1 reporter Jurkat cells, Ig-tethered test article on anti-human IgG coated plates [7] [nM]	EC50 of SHP-2 recruitment, PD-1 reporter Jurkat cells, soluble test article [7] [nM]	Kd [6] [nM]	also measured
Fab moiety of the PD1AB37 (Fab, V domains shown, also called PD1AB37 Fab) VH: EVQLVQSGAEVKKPGASVKVSCKASGYSFTSYYMHWVRQAPGQGLEWMGIINPSGGSTSYAQKFQGRVTMTRDTSTSTVYMELSSLRSEDTAVYYCASGWVYWGQGTLVTVSS VL: not shown	497	1350	330	–	–	–	–	–	–
Fab moiety of the PD1AB38 (Fab, V domains shown, also called PD1AB38 Fab) VH: EVQLVQSGAEVKKPGASVKVSCKASGYSFTTYYMHWVRQAPGQGLEWMGIINPSGGSTSYAQKFQGRVTMTRDTSTSTVYMELSSLRSEDTAVYYCASGWVYWGQGTLVTVSS VL: DIQMTQSPSSLSASVGDRVTITCQASRDIKNYLAWYQQKPGKAPKLLIYAASSLQSGVPSRFSGSGSGTDFTLTISSLQPEDFATYYCQQSYSTPPTFGPGTKVDIK	172	176	140	–	–	–	–	–	–
PD1AB38 (bispecific antibody, human IgG1, kappa) heavy: EVQLVQSGAEVKKPGASVKVSCKASGYSFTTYYMHWVRQAPGQGLEWMGIINPSGGSTSYAQKFQGRVTMTRDTSTSTVYMELSSLRSEDTAVYYCASGWVYWGQGTLVTVSSASTKGPSVFPLAPSSKSTSGGTAALGCLVKDYFPEPVTVSWNSGALTSGVHTFPAVLQSSGLYSLSSVVTVPSSSLGTQTYICNVNHKPSNTKVDKKVEPKSCDKTHTCPPCPAPEAAGAPSVFLFPPKPKDTLMISRTPEVTCVVVDVSHEDPEVKFNWYVDGVEVHNAKTKPREEQYNSTYRVVSVLTVLHQDWLNGKEYKCKVSNKALPAPIEKTISKAKGQPREPQVYTLPPSREEMTKNQVSLTCLVKGFYPSDIAVEWESNGQPENNYKTTPPVLDSDGSFFLYSKLTVDKSRWQQGNVFSCSVMHEALHNHYTQKSLSLSPGGGGGSGGGGSGGGGSEVQLLESGGGLVQPGGSLRLSCAASGFTFSSYDMSWVRQAPGKGLEWVSGITISGGSTYYADSVKGRFTISRDNSKNTLYLQMNSLRAEDTAVYYCARGRGGSGWLDYWGQGTTVTVSSGGGGSGGGGSGGGGSGGGGSDIVMTQSPDSLAVSLGERATINCKSSQSVLYSPNNKNYLAWYQQKPGQPPKLLIYWASTRESGVPDRFSGSGSGTDFTLTISSLQAEDVAVYYCQQYYTTPPTFGQGTRLEIK light: not shown	–	–	–	0.0229 s⁻¹	23400 M⁻¹ s⁻¹	20.9	0.302	979	–
PD1AB37 (bispecific antibody, human IgG1, kappa) heavy: EVQLVQSGAEVKKPGASVKVSCKASGYSFTSYYMHWVRQAPGQGLEWMGIINPSGGSTSYAQKFQGRVTMTRDTSTSTVYMELSSLRSEDTAVYYCASGWVYWGQGTLVTVSSASTKGPSVFPLAPSSKSTSGGTAALGCLVKDYFPEPVTVSWNSGALTSGVHTFPAVLQSSGLYSLSSVVTVPSSSLGTQTYICNVNHKPSNTKVDKKVEPKSCDKTHTCPPCPAPEAAGAPSVFLFPPKPKDTLMISRTPEVTCVVVDVSHEDPEVKFNWYVDGVEVHNAKTKPREEQYNSTYRVVSVLTVLHQDWLNGKEYKCKVSNKALPAPIEKTISKAKGQPREPQVYTLPPSREEMTKNQVSLTCLVKGFYPSDIAVEWESNGQPENNYKTTPPVLDSDGSFFLYSKLTVDKSRWQQGNVFSCSVMHEALHNHYTQKSLSLSPGGGGGSGGGGSGGGGSEVQLLESGGGLVQPGGSLRLSCAASGFTFSSYDMSWVRQAPGKGLEWVSGITISGGSTYYADSVKGRFTISRDNSKNTLYLQMNSLRAEDTAVYYCARGRGGSGWLDYWGQGTTVTVSSGGGGSGGGGSGGGGSGGGGSDIVMTQSPDSLAVSLGERATINCKSSQSVLYSPNNKNYLAWYQQKPGQPPKLLIYWASTRESGVPDRFSGSGSGTDFTLTISSLQAEDVAVYYCQQYYTTPPTFGQGTRLEIK light: not shown	–	–	–	0.0245 s⁻¹	5050 M⁻¹ s⁻¹	24.5	0.37	4860	Kd [4]: 15.4 nM; koff [4]: 0.000566 s⁻¹; kon [4]: 36800 M⁻¹ s⁻¹; Kd [5]: 18.3 nM; koff [5]: 0.000824 s⁻¹; kon [5]: 45000 M⁻¹ s⁻¹

Second part, led by results:

Kd [1] [nM]	Kd [2] [nM]	Kd [3] [nM]	koff [6]	kon [6]	EC50 of SHP-2 recruitment, PD-1 reporter Jurkat cells, Ig-tethered test article on anti-human IgG coated plates [7] [nM]	EC50 of SHP-2 recruitment, PD-1 reporter Jurkat cells, soluble test article [7] [nM]	Kd [6] [nM]	Binder	also measured
1170	1060	1350	–	–	–	–	–	scFv moiety of the PD1AB53 (scFv, also called PD1AB53 scFv) scFv: DIQMTQSPSSLSASVGDRVTITCQASRDIKNYLAWYQQKPGKAPKLLIYAASSLQSGVPSRFSGSGSGTDFTLTISSLQPEDFATYYCQQSYSTPPTFGCGTKVDIKGGGGSGGGGSGGGGSGGGGSEVQLVQSGAEVKKPGASVKVSCKASGYSFTTYYMHWVRQAPGQCLEWMGIINPSGGSTSYAQKFQGRVTMTRDTSTSTVYMELSSLRSEDTAVYYCASGWVYWGQGTLVTVSS	–
58.6	–	–	–	–	–	–	–	scFv moiety of the PD1AB38 (scFv, also called PD1AB38 scFv) scFv: EVQLLESGGGLVQPGGSLRLSCAASGFTFSSYDMSWVRQAPGKGLEWVSGITISGGSTYYADSVKGRFTISRDNSKNTLYLQMNSLRAEDTAVYYCARGRGGSGWLDYWGQGTTVTVSSGGGGSGGGGSGGGGSGGGGSDIVMTQSPDSLAVSLGERATINCKSSQSVLYSPNNKNYLAWYQQKPGQPPKLLIYWASTRESGVPDRFSGSGSGTDFTLTISSLQAEDVAVYYCQQYYTTPPTFGQGTRLEIK	binding result [2]: no binding
–	–	–	0.0228 s⁻¹ and 0.0657 s⁻¹	5940 M⁻¹ s⁻¹ and 2670 M⁻¹ s⁻¹	4.83	1.21	–	PD1AB53 (bispecific antibody, human IgG1, kappa) heavy: EVQLLESGGGLVQPGGSLRLSCAASGFTFSSYDMSWVRQAPGKGLEWVSGITISGGSTYYADSVKGRFTISRDNSKNTLYLQMNSLRAEDTAVYYCARGRGGSGWLDYWGQGTTVTVSSASTKGPSVFPLAPSSKSTSGGTAALGCLVKDYFPEPVTVSWNSGALTSGVHTFPAVLQSSGLYSLSSVVTVPSSSLGTQTYICNVNHKPSNTKVDKKVEPKSCDKTHTCPPCPAPEAAGAPSVFLFPPKPKDTLMISRTPEVTCVVVDVSHEDPEVKFNWYVDGVEVHNAKTKPREEQYNSTYRVVSVLTVLHQDWLNGKEYKCKVSNKALPAPIEKTISKAKGQPREPQVYTLPPSREEMTKNQVSLTCLVKGFYPSDIAVEWESNGQPENNYKTTPPVLDSDGSFFLYSKLTVDKSRWQQGNVFSCSVMHEALHNHYTQKSLSLSPGGGGSEGGGSEGGGSEDIQMTQSPSSLSASVGDRVTITCQASRDIKNYLAWYQQKPGKAPKLLIYAASSLQSGVPSRFSGSGSGTDFTLTISSLQPEDFATYYCQQSYSTPPTFGCGTKVDIKGGGGSGGGGSGGGGSGGGGSEVQLVQSGAEVKKPGASVKVSCKASGYSFTTYYMHWVRQAPGQCLEWMGIINPSGGSTSYAQKFQGRVTMTRDTSTSTVYMELSSLRSEDTAVYYCASGWVYWGQGTLVTVSS light: not shown	Kd [4]: 13.5 nM; koff [4]: 0.000531 s⁻¹; kon [4]: 39400 M⁻¹ s⁻¹; kon [5]: 67600 M⁻¹ s⁻¹ and 41300 M⁻¹ s⁻¹; response [5]: 0.227; response [6]: 0.0367
–	–	–	0.0404 s⁻¹	28200 M⁻¹ s⁻¹	8.51	0.574	1430	PD1AB43 (bispecific antibody, human IgG1, kappa) heavy: QVQLVQSGAEVKKPGASVKVSCKASGYSFTTYYMHWVRQAPGQGLEWMGIIAPSGGSTSYAQKFQGRVTMTRDTSTSTVYMELSSLRSEDTAVYYCASGWVYWGQGTLVTVSSASTKGPSVFPLAPSSKSTSGGTAALGCLVKDYFPEPVTVSWNSGALTSGVHTFPAVLQSSGLYSLSSVVTVPSSSLGTQTYICNVNHKPSNTKVDKKVEPKSCDKTHTCPPCPAPEAAGAPSVFLFPPKPKDTLMISRTPEVTCVVVDVSHEDPEVKFNWYVDGVEVHNAKTKPREEQYNSTYRVVSVLTVLHQDWLNGKEYKCKVSNKALPAPIEKTISKAKGQPREPQVYTLPPSREEMTKNQVSLTCLVKGFYPSDIAVEWESNGQPENNYKTTPPVLDSDGSFFLYSKLTVDKSRWQQGNVFSCSVMHEALHNHYTQKSLSLSPGGGGGSGGGGSGGGGSEVQLLESGGGLVQPGGSLRLSCAASGFTFSSYDMSWVRQAPGKGLEWVSGITISGGSTYYADSVKGRFTISRDNSKNTLYLQMNSLRAEDTAVYYCARGRGGSGWLDYWGQGTTVTVSSGGGGSGGGGSGGGGSGGGGSDIVMTQSPDSLAVSLGERATINCKSSQSVLYSPNNKNYLAWYQQKPGQPPKLLIYWASTRESGVPDRFSGSGSGTDFTLTISSLQAEDVAVYYCQQYYTTPPTFGQGTRLEIK light: not shown	response [6]: 0.0546
